Laboratory results as given in article PMC4574351, “Tubulin cofactors and Arl2 are cage-like chaperones that regulate the soluble αβ-tubulin pool for microtubule dynamics” (eLife, 2015).

Molecular target: T1, Tubulin cofactor D (TBCD), S. cerevisiae Cin1p (S. cerevisiae, UniProt P40987 1-1014)
T1 construct: Tubulin cofactor D ortholog Cin1p, S. cerevisiae, full-length cDNA; TBCD is insoluble when expressed alone; also called Yeast TBCD (cin1p); His-TBCD; source: E. coli, co-expressed with TBCE and Arl2 from polycistronic vectors; co-purified as TBC-DEG (Ni-NTA, HiTrap SP, Superdex 200); not shown: 6xHis, N-terminal, kept
T1 sequence (looked up): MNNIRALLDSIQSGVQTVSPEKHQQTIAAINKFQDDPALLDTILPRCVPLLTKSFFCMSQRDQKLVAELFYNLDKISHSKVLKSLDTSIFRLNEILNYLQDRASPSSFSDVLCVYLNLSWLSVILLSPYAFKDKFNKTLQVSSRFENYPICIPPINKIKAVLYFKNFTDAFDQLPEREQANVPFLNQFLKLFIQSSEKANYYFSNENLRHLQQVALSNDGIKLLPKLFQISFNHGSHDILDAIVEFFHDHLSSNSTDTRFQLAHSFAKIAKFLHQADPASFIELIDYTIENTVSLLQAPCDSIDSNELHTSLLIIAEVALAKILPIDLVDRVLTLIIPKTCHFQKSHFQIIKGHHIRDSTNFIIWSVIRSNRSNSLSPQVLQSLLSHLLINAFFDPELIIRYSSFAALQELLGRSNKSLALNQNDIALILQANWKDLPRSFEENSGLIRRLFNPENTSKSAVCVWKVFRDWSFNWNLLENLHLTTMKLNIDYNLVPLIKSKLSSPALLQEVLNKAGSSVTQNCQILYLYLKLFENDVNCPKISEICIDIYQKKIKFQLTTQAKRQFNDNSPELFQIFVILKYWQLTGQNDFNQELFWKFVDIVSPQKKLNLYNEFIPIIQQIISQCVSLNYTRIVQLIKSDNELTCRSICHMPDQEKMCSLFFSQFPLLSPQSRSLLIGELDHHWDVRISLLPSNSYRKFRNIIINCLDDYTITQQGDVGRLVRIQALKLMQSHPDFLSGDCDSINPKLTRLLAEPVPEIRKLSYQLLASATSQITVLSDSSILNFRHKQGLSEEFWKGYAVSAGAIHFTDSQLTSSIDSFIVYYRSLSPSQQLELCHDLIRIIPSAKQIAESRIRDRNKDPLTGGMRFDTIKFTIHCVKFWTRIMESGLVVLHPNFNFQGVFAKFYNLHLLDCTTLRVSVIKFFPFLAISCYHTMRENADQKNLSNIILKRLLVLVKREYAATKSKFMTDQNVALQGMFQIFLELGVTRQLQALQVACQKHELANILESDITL
Experiment: SEC-MALS; WTC-03S5 column; purified TBC-DEG (subunits co-expressed and co-purified), αβ-tubulin, TBCC and their complexes; ternary complex with GDP·ALFx (wild type) or GTP (Q73L)
Settings: both partners purified

- stoichiometry N: 1
B1: Arl2 GTPase, S. cerevisiae Cin4p (enzyme, UniProt P39110 1-191, looked up)
chain: MGLLSIIRKQKLRDKEIRCLILGLDNSGKSTIVNKLLPKDEQNNDGIMPTVGFQIHSLMIKDVTISLWDIGGQRTLRPFWDNYFDKTQAMIWCIDVSLSMRFDETLQELKELINRDENRIGYECAVIVVLNKIDLVEDKSELHRRCLLVESELKCLFKPDIRIELVKCSGVTGEGIDNLRDRLVESCHFTQ
notes: ADP ribosylation factor-like 2 ortholog Cin4p, S. cerevisiae, full-length cDNA; Tags were not tolerated on either end of Arl2; Insoluble when expressed alone; also called Yeast Arl2 (cin4p); source: E. coli, co-expressed with TBCD and TBCE from polycistronic vectors; co-purified as TBC-DEG (Ni-NTA, HiTrap SP, Superdex 200)
